According to paper PMC8918029 (Journal of medicinal chemistry, 2021):
Square brackets hold non-standard residues; d marks the D form. * marks the point of attachment. Boc = CC(C)(C)OC(=O)*; Aib = CC(C)(N)C(=O)O

Biological target: γ-secretase complex (presenilin-1, nicastrin, Aph-1, Pen-2) (UniProt Q92542 34-709; Q96BI3 1-265; Q9NZ42 1-101)
Experiment: enzyme inhibition kinetics

- Ki: 1.19 ± 0.1 nM
Binder: Boc-VG[Aib]VVI[Aib]FV[Aib]GGGVFFLV-NH2 (also: hydroxyethylurea isostere (ψ) between the two Phe (15-16)) [HPI-TSA conjugate 28]
